Results as given in article PMC11071394.
Where “and” joins values, the source holds several entries; their conditions need not be identical. Equal entries are not always repeated.

Molecular target: Sg Enc, Family 2B encapsulin shell protein from Streptomyces griseus (expressed in S. coelicolor A3(2)) (Streptomyces griseus)
Assay: cryo-EM structure

Substance | 2-MIBS dimers per shell (dimers per shell) | stoichiometry N [protomers]
Sg 2-methylisoborneol synthase (2-MIBS) from Streptomyces griseus, co-expressed with Sg Enc (enzyme) | 3 and 4 | 
Sg Enc, Family 2B encapsulin shell protein from Streptomyces griseus (expressed in S. coelicolor A3(2)) (natural protein) |  | 60
